According to patent US20180086849A1 (Hoffmann-La Roche, published 2018):

Legend:
[1] = biological target: T1, hu-MCSP(D3 domain)-avi-his (human, UniProt Q6UVK1 1582-2224, biotinylated where used for selection or for coupling to the SA chip); experiment: SPR (ProteOn XPR36), IgG captured, antigen as analyte
T1 construct: also called human MCSP(D3 domain)-avi-his; human MCSP D3
T1 sequence: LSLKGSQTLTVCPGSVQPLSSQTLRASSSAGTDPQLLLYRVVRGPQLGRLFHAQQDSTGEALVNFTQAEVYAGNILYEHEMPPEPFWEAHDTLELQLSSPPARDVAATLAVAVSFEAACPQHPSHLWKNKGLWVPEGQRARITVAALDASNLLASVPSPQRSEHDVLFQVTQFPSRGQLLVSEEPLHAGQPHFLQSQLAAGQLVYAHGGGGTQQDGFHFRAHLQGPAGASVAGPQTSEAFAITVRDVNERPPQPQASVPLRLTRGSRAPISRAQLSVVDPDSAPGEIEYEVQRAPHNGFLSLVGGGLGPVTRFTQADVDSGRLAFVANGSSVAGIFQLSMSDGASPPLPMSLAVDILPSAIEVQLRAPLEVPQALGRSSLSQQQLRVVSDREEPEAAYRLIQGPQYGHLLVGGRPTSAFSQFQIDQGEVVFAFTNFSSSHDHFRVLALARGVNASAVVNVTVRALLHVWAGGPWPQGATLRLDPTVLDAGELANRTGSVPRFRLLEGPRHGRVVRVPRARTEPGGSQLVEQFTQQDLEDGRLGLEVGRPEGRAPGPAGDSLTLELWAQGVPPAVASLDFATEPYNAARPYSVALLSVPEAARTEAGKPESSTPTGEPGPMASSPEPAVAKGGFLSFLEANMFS
Experimental: Briefly, carboxymethylated dextran biosensor chips (CM5, GE Healthcare) were activated with N-ethyl-N′-(3-dimethylaminopropyl)-carbodiimide hydrochloride (EDC) and N-hydroxysuccinimide (NHS) according to the supplier's instructions. Anti-human F(ab′)2 fragment specific capture antibody was diluted with 10 mM sodium acetate, pH 5.0 at 50 μg/ml before injection at a flow rate of 10 μl/minute to achieve approximately up to 10.000 response units (RU) of coupled capture antibody. Following the injection of the capture antibody, 1 M ethanolamine was injected to block unreacted groups. For kinetics measurements, Fabs from bacterial supernatant or purified Fabs are injected at a flow rate of 10 ul/minute for 300 s and a dissociation of 300 s for capture baseline stabilization. […] Association rates (kon) and dissociation rates (koff) were calculated using a simple one-to-one Langmuir binding model (ProteOn XPR36 Evaluation Software or Scrubber software (BioLogic)) by simultaneously fitting the association and dissociation sensorgrams. The equilibrium dissociation constant (KD) was calculated as the ratio koff/kon. […]
In the IgG format affinities were measured again to the human MCSP antigen (SEQ ID NO. 390), in addition also to the cynomolgus homologue (SEQ ID NO. 389). […]

cynomolgus MCSP D3 = biological target: T2, cynomolgus MCSP D3 (cynomolgus, UniProt Q6UVK1 1582-2224 (human entry)); experiment: SPR (ProteOn XPR36), IgG KD against parental M4-3/ML2
T2 construct: also called cynomolgus homologue; not shown: C-terminal tag
T2 chain: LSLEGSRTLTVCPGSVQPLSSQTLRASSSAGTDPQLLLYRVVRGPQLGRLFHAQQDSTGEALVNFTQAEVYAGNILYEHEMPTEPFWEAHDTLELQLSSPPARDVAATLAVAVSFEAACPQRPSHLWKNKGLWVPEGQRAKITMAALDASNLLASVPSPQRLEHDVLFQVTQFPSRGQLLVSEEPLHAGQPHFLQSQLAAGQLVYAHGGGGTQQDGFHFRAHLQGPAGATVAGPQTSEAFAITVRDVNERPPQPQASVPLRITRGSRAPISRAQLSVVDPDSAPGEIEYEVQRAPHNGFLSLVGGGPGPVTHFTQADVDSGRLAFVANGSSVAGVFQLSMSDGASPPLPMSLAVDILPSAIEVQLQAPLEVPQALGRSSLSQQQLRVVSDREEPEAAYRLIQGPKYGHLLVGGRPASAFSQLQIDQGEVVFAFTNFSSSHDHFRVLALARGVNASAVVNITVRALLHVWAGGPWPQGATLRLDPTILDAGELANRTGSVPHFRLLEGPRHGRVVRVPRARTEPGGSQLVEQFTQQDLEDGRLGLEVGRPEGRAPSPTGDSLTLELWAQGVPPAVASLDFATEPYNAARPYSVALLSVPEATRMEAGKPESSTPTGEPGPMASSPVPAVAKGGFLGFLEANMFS
Experimental: (§1) Briefly, carboxymethylated dextran biosensor chips (CM5, GE Healthcare) were activated with N-ethyl-N′-(3-dimethylaminopropyl)-carbodiimide hydrochloride (EDC) and N-hydroxysuccinimide (NHS) according to the supplier's instructions. Anti-human F(ab′)2 fragment specific capture antibody was diluted with 10 mM sodium acetate, pH 5.0 at 50 μg/ml before injection at a flow rate of 10 μl/minute to achieve approximately up to 10.000 response units (RU) of coupled capture antibody. Following the injection of the capture antibody, 1 M ethanolamine was injected to block unreacted groups. For kinetics measurements, Fabs from bacterial supernatant or purified Fabs are injected at a flow rate of 10 ul/minute for 300 s and a dissociation of 300 s for capture baseline stabilization. […] The surface of the sensorchip was regenerated by injection of glycine pH 1.5 for 30 s at 90 ul/min followed by injection of NaOH for 20 s at the same flow rate. Association rates (kon) and dissociation rates (koff) were calculated using a simple one-to-one Langmuir binding model (ProteOn XPR36 Evaluation Software or Scrubber software (BioLogic)) by simultaneously fitting the association and dissociation sensorgrams. The equilibrium dissociation constant (KD) was calculated as the ratio koff/kon. […] Since CDR1 and 2 of the light chain were randomized independent from CDR3, the obtained CDRs were combined during IgG conversion.
(§2) In the IgG format affinities were measured again to the human MCSP antigen (SEQ ID NO. 390), in addition also to the cynomolgus homologue (SEQ ID NO. 389). Method exactly as described for the Fab fragments, just purified IgG from mammalian production were used.

[2] = biological target: T1, hu-MCSP(D3 domain)-avi-his; experiment: as above
Experimental: as §1, §2

B1: M4-3(A7)/ML2(C5) (IgG) (antibody, V domains shown)
VH: QVQLQESGPGLVKPSQTLSLTCTVSGGSITDGYYWNWIRQHPGKGLEWIGYITFDGRNNYNPSLKSRVTISRDTSKNQFSLKLSSVTAADTAVYYCADFDYWGQGTLVTVSS
VL: DIQMTQSPSSLSASVGDRVTITCRASRGIREYLNWYQQKPGKAPKLLIYYTGSLHSGVPSRFSGSGSGTDFTLTISSLQPEDFATYYCQQYSELPWTFGQGTKVEIK
notes: Human IgG1 format
Kd [1]: 0.07 nM
Comparative binding affinity - Fold increase over parent (cynomolgus MCSP D3): 10 fold
Comparative binding affinity - Fold increase over parent [2]: 28.6 fold
